# Measurements as given in the DeepSol protein solubility set.
# Experiment: soluble on expression in E. coli; label from the status in PepcDB or PDB records
row,Sequence,soluble on expression in E. coli
1,KTDDPRFKIYKLAYSAFLSRITVKDVIWNKDKGIKLMDGYYWDFINDPHLLVAGGTGGGKTVLLRSILRCLAEIGVCDICDPKRADFVTMSDLSAFEGRIAFEKADIIEKFENAVTIMFARYDFVRNEMKRLGHKDMKKFYDYGLEPYFFVCDEYNALMSSLSYQEREIVDNAFTQYILLGRQVGCNAIIAMQKPSA,not soluble
2,MASGTASTKIVIAGGFGSGKTTFVGAVSEIMPLRTEAMVTDASAGVDMLEATPDKRSTTVAMDFGRITLGEDLVLYLFGTPGQRRFWFMWDDLVRGAIGAIVLVDCRRLQDSFAAVDFFEHRNLPFLIAINEFDSAPRYPVSAVRDALTLPAHIPVINVDARNRRSATDALIAVSEYALATLSPLEHHHHHH,not soluble
3,MSFNLSVIGAGLPVAQSTTTLIDALRTHRMAVVQAPPGTGKTTLVPPIAHNVTGGRVIVVAPRRVAVRAAAHHLVQLDQSSCDQPSTHRVGYTIRGERSRGDLVEFVTPGVLLRRLISNPELDGVSAVVVDEVHERQLDTDLVLGMLVELRELRDDLTVIAMSAT,not soluble
4,MDCVVGRKNSAAVLLVLSERKTREEIILKLPDKTQESVIKAIDELERKYRRKFREKFKTITVDNGTEFLDYRGIEKSKTEPGKDRTKVYYAHPYSSWERGTNENINKLIRRFIPKGTDISKVSKAKIKSIERWINEYPRRMFGYRSAIEMAV,soluble
5,MGHHHHHHSHMASVSSATFSGHGARSLLQFLRLVGQLKRVPRTGWVYRNVQRPESVSDHMYRMAVMAMVIKDDRLNKDRKL,not soluble
6,MGSDKIHHHHHHMIDAFVRIGPLMDPASYPQWAQQLIEDCRESKRRVVEHEFYARLRDGQLKQSTIRQYLIGGWPVVEQFSLYMAHNLTKTRYGRHQGEDMARRWLMRNIRVELNHADYWVNWCQAHGVHLHELQAQEVPPELNGLNDWCWRVCATENLAISMAATNYAIEGATGEWSAVVCSTDTYAQGFPEEGRKRAMKWLKMHAQYDDAHPWEALEIICTLAGENPTLGLRTELRRAICKSYDCMFLFLERCMQLEGRQQGRMRPALAAG,not soluble
7,MGSDKIHHHHHHMQKESIYGLTREQLVDWFLAHGEKKFRATQVWEWLYTKRVASFSEMSNISKSLMTLLEENFSLNPLKQVIVQEAQDGTVKYLFELPDKNMIETVLMRQEYGLSVCVTTQVGCNIGCTFCASGLLKKQRDLTAGEIVAQIMWVQHYFDERGLDERVSHVVVMGIGEPFDNYANVMNFLRTINDDKGLAIGARHITVSTSGLVPKIREFADSGLQVNLAISLHAPNNEVRTSIMRINRSFPIEKLMAAIDEYIEKTNRRVTFEYIMLSQVNDRPEHAQQLADLLRNKKKLSYVNLIPYNPVSEHDQYSRSSKEAVLKFYDVLKKNGINCVIRKEHGTDIDAACGQLRSKQMKKEKVKNQ,not soluble
8,MGSDKIHHHHHHMAQQPLAYRMRPQRLEDIVGQQDLVAPGKIIARMVAAKLLSSMILYGPPGTGKTSIASAIAGSTQYAFRKLNAATDSKKDLQIVAEEAKMSGTVILLLDEIHRLDKTKQDFLLPHLESGRIVLIGATTENPYININPAIRSRTQIFEVHPLTPDDIKIALHRALTDTENGLGKLPIDLNTEALNFIAGATNGDLRSALNGLELAAQSTPAANDDRIHITLAVAEACFQRKALMGDKDGDAHYDVISAFQKSIRGSDTDAALHYLAQLVAAGDLPAICRRLMVIAYEDIGMANLPAAARTVQAVQAAQQLGLPEGRIPLADAVIELCLSPKSDSGISAIDAALADVLNGHNGAVPDHLKDAHYAGAKKLGHGTDYKYPHNFPNDWVKQQYLPDTLKNAEYYHPKTNGRFETQLAQQYRRLLTANRH,not soluble
9,MPRKLLEERSTGSATKWLREEEKIEKKSRADQLKIKFMQTRDNSDINSIFSEPPSEFSVLCDDDDCDKGSVVSSTLTTSIRKTFSSFRFDENQRKKGTRKRRSSEKGRICRRKVHIILARNMLRKENELYKKDAEYCQTPRAVADGCSFSTLPTI,not soluble
10,MGSDKIHHHHHHMTTQFACSGIELELFRYPSQQASNLQAWDAADEHLVKYLIDTEITATTTAILNDNFGALTCALTMQYPHSELLVETDAKTSLLGYQQNLLHNKLASTNIHWLNSRETLPQNIQLVLMKLPKNLHYFGQQLARLSTVLPAGTQILIGAKAKSINPALLASIEKNLGPASASLAWKKTRVISCISDGKKRSLAKAVSWNVDELKLTISNLANVFAANKLDIGARIMLDNMPKGEFKHIIDLGCGNGILGLHAKQCYPNAQIHFVDDSDMAIASAKHNWQANELDTPSQDLQSQDPQTEQMPQAFFHWDDCLSNLPADVEPDLVICNPPFHQGEAITDHIAWQMFVDAHKRLKKGGLLHIVGNRHLAYHVKINRIFKNCTTVASNGKFVILQAIK,not soluble
11,MTSQPTSSLQGSCSICFEDLKQNDKISAIVCGHIYHHGCISQWIATKRQCPSCRRTVPKNGFVEKLFFDVQRMGGEAEKPPEIDYREEHYKLSTSLKVEQEKLGTLNTENKNLKDTVKSLEKKIIREKDKYRQEIPKLQATINHLTISSEETAYLKRELQESKNRLKTCEFYKILTVHSSEADKQLGEYLKKNGNLDTEKFFQLMKSTNKDLTDKRREAAKEIEQLKMEVQSLKRAAQEDAAIKKV,not soluble
12,VAWFTDEEGGRGRIEAGQLADLVVPDKDFFSCPEDDISFLVSELTMVGGRIVYAAGGFAALDDNPLPPAMPDWSPARTFKGYAAWGDPDGAGRHSLQRRAVAACGCANACGLHGHQHARAWGTALPVSDAKGFFGALGCSCWA,not soluble
13,MGSDKIHHHHHHMARFMGSETEYGISTPSAPFLSPIVTSTHAVVAYSTARGFGEHRVRWDYAQESPLRDTRGFDLRRYHQAPVVDPHAIGVANVFVPNGARFYVDHAHPEYSSPEVTNAWDAMVYDAAGDHILMQAVSDVASFTSQNRSVLDGHDPCPALKIYKNNVDGKGASYGSHENYLYSRETDFDVLAQALIPFFVCRQVIIGAGRVGLGPQGDKPGFQVSQRADYIEQEISLETTLNRGIINTRDEPHTDADHWGRLHVIIGDANMSQTANFLKFGMTSLVLDAIEAGVDFSELKLKNAVSEVAKVSHDLSLTHQLRLADGSELTAIDILRRYLDKVQPFAETPVEQRVTALWGEVLGLLENDLLSTSHLLDWTAKLALIKSFEARGLSINDPKMYLIDLQYSDIDPQKSLYHALVSKGRMKTLCSAQDIADAAATPPQDSRAYFRGRVMDKFGESVLAANWESLIVATSSAKEYRVHTSGLDTLTREEAGELVEKSATIDELIEGLEKENLTPLTAIQAI,not soluble
14,MGSDKIHHHHHHMKSFRNIMGDSQNLDKRIQKIKQNVINDTDVKHFLEKNRSNITNEMIDEDLNVLQEYKDQQKVYDGHRYDDCPNFVKGHVPELYIENERIKIRYLPCPCKIKHDEERFDSQLITSHHMQRDTLHAKLKDIYMNNRERLDVAMAADQICTAITNDEKVKGLYLYGPFGTGKSFILGAIANQLKSQKISSTIVYLPEFIRTLKGGFKDGSFEKKLQRVREANILMLDDIGAEEVTPWVRDEVIGPLLHYRMVHELPTFFSSNFNYSELEHHLSITRDGTEKTKAARIIERIKTLSTPYYLTGKNFRNN,not soluble
15,MNVINETANVLKLETGSVTSAKGFSAVGIHTGVKRKRKDLGAIVCEVPASSAAVYTLNKVQAAPLKVTQESIAVEGKLQAMIVNSGIANACTGKRGLDDAYTMRAVGAETFHIPEHYVAVTSTGVIGEFLPMDVITNGIRQLKPEATIEGAHAFNEAILTTDTVEKHTCYQTIVNGKTVTVGGVAKGSGMIHPNMATMLSFVTTDANIDHGHLQGALSAITNETFNRITVDGDTSTNDMVVVMASGLAENEALTPEHPDWANFYKALQLACEDLAKQIARDGEGATKLIEVEVTGAANDQEAGMVAKQIVGSDLVKTAIYGADANWGRIICAIGYSGCEVNQETIDIAIGPIVTLKQSEPTGFSEEEATAYLKEADPVKISVNLHIGNGTGKAWGCDLTYDYVRINAGYRTLEHHHHHH,not soluble
16,MKYDDTINIAFFGLDRRQKTDISRSDSIMILTMDPTHKKLKLSSIMRDTYVNVDGHGMTKITHAYAYGGPQLAIKTINENFNLNIKDYVTVDFYGLEKIIDKLNGVEVDVQPDEVNYLNSYIDEVSKYEKVTPNHVSSAGKQLLDGRQAVAYSRIRYTAGGDFQRTERQRTVLMAVFNKMKAQGKSNMLSMMDELLPYAETDLGSLDIAKYGAKFLSSNIDSIDQERFPVDGYCSGITVDNVWYLKTDLGVTSDQMKKYIFEDVKPTPKASLVNIPAKLEHHHHHH,soluble
